Assays:
HeLa Kyoto [1] = experiment: solubility change mitosis vs G1/S (difference of NP-40 vs SDS log2 ratios) (log2 ratio difference); higher = more soluble in mitosis
HeLa Kyoto [2] = experiment: melting temperature (median over replicates), in situ; higher = more thermally stable
HeLa Kyoto [3] = experiment: solubility in G1/S (NP-40 vs SDS abundance) (log2 ratio); higher = more soluble; conditions: cell cycle stage: G1/S
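Throughout, for melting temperature (median over replicates), in situ: HeLa Kyoto cells synchronized by double thymidine or nocodazole block, proteins quantified by TMT10plex mass spectrometry, three independent biological replicates.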
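Throughout, for solubility change mitosis vs G1/S (difference of NP-40 vs SDS log2 ratios): synchronized HeLa Kyoto cells (double thymidine block for G1/S, nocodazole release for mitosis), protein amounts in NP-40 versus SDS lysates quantified by mass spectrometry, three biological replicates.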
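Throughout, for solubility in G1/S (NP-40 vs SDS abundance): HeLa Kyoto cells arrested at G1/S by double thymidine block, proteins quantified by TMT10plex mass spectrometry in mild NP-40 versus SDS extracts, three biological replicates.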

| Sequence | solubility change mitosis (log2) (HeLa Kyoto [1]) | melting temperature (HeLa Kyoto [2]; cell cycle stage: G1/S) [°C] | melting temperature (HeLa Kyoto [2]; cell cycle stage: mitosis) [°C] | solubility in G1/S (log2) (HeLa Kyoto [3]) |
| --- | --- | --- | --- | --- |
| MASSASARTPAGKRVINQEELRRLMKEKQRLSTSRKRIESPFAKYNRLGQLSCALCNTPVKSELLWQTHVLGKQHREKVAELKGAKEASQGSSASSAPHSVKRKAPDADDQDVKRAKATLVPQVQPSTSAWTTNFDKIGKEFIRATPSKPSGLSLLPDYEDEEEEEEEEEGDGERKRGDASKPLSDAQGKEHSVSSSREVTSSVLPNDFFSTNPPKAPIIPHSGSIEKAEIHEKVVERRENTAEALPEGFFDDPEVDARVRKVDAPKDQMDKEWDEFQKAMRQVNTISEAIVAEEDEEGRLDRQIGEIDEQIECYRRVEKLRNRQDEIKNKLKEILTIKELQKKEEENADSDDEGELQDLLSQDWRVKGALL [ZNF830] | 0.0142 | 56.2 | 54.4 | 0.423 |
| MASSFLPAGAITGDSGGELSSGDDSGEVEFPHSPEIEETSCLAELFEKAAAHLQGLIQVASREQLLYLYARYKQVKVGNCNTPKPSFFDFEGKQKWEAWKALGDSSPSQAMQEYIAVVKKLDPGWNPQIPEKKGKEANTGFGGPVISSLYHEETIREEDKNIFDYCRENNIDHITKAIKSKNVDVNVKDEEGRALLHWACDRGHKELVTVLLQHRADINCQDNEGQTALHYASACEFLDIVELLLQSGADPTLRDQDGCLPEEVTGCKTVSLVLQRHTTGKA [ACBD6] | 0.0566 | 48 | 49.2 | 0.393 |
| MASSLNEDPEGSRITYVKGDLFACPKTDSLAHCISEDCRMGAGIAVLFKKKFGGVQELLNQQKKSGEVAVLKRDGRYIYYLITKKRASHKPTYENLQKSLEAMKSHCLKNGVTDLSMPRIGCGLDRLQWENVSAMIEEVFEATDIKITVYTL [OARD1] | 0.139 | – | 50.5 | 0.299 |
| MASYFDEHDCEPSDPEQETRTNMLLELARSLFNRMDFEDLGLVVDWDHHLPPPAAKTVVENLPRTVIRGSQAELKCPVCLLEFEEEETAIEMPCHHLFHSSCILPWLSKTNSCPLCRYELPTDDDTYEEHRRDKARKQQQQHRLENLHGAMYT [RNF181] | 0.00514 | 54.8 | 55.8 | 0.563 |
| MATSTGRWLLLRLALFGFLWEASGGLDSGASRDDDLLLPYPRARARLPRDCTRVRAGNREHESWPPPPATPGAGGLAVRTFVSHFRDRAVAGHLTRAVEPLRTFSVLEPGGPGGCAARRRATVEETARAADCRVAQNGGFFRMNSGECLGNVVSDERRVSSSGGLQNAQFGIRRDGTLVTGYLSEEEVLDTENPFVQLLSGVVWLIRNGSIYINESQATECDETQETGSFSKFVNVISARTAIGHDRKGQLVLFHADGQTEQRGINLWEMAEFLLKQDVVNAINLDGGGSATFVLNGTLASYPSDHCQDNMWRCPRQVSTVVCVHEPRCQPPDCHGHGTCVDGHCQCTGHFWRGPGCDELDCGPSNCSQHGLCTETGCRCDAGWTGSNCSEECPLGWHGPGCQRPCKCEHHCPCDPKTGNCSVSRVKQCLQPPEATLRAGELSFFTRTAWLALTLALAFLLLISTAANLSLLLSRAERNRRLHGDYAYHPLQEMNGEPLAAEKEQPGGAHNPFKD [NAGPA] | -0.232 | 54.5 | 55.4 | 0.327 |
| MAVCGLGSRLGLGSRLGLRGCFGAARLLYPRFQSRGPQGVEDGDRPQPSSKTPRIPKIYTKTGDKGFSSTFTGERRPKDDQVFEAVGTTDELSSAIGFALELVTEKGHTFAEELQKIQCTLQDVGSALATPCSSAREAHLKYTTFKAGPILELEQWIDKYTSQLPPLTAFILPSGGKISSALHFCRAVCRRAERRVVPLVQMGETDANVAKFLNRLSDYLFTLARYAAMKEGNQEKIYMKNDPSAESEGL [MMAB] | 0.126 | 51.8 | 55.8 | 0.574 |

— the supplement of paper PMC5998384
